Assay results taken from article PMC4067530, “Evidence for a DNA-relay mechanism in ParABS-mediated chromosome segregation” (eLife, 2014).
One block for each molecule: values may come before it.

Experiments:
[1] = target: T1, ParA (Caulobacter vibrioides, UniProt B8GW31, R195E); experiment: size exclusion chromatography (ATP-dependent dimerization); assay type: binding; details: 2.5 mM Mg-ATP, pH 7.5, 150 mM potassium glutamate; mutant does not bind DNA
T1 construct: full length, recombinant from E. coli BL21(DE3), pET24HT-ParA, His6 tag removed by TEV protease
T1 sequence (B8GW31 whole entry R195E): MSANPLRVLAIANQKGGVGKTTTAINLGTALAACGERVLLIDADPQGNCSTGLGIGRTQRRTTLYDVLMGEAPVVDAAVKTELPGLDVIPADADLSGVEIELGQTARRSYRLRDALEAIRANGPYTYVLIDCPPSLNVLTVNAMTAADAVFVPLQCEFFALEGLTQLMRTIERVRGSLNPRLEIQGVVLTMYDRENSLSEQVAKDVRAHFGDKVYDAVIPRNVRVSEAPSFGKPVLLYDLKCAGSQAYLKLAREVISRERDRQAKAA

[2] = target: Caulobacter crescentus ParA (wild type) (C. crescentus); experiment: SEC; +ATP: ParA freed of ATP (EDTA, buffer exchange), then mixed with 2.5 mM Mg-ATP, 10 min at room temperature; 50 µl at approximately 50 µM on Superdex 75 10/300 GL in 25 mM Hepes/KOH pH 7.5, 150 mM KGlu, 5 mM MgSO4, 2 mM Mg-ATP, 0.1 mM EDTA, 1 mM DTT; monomer to dimer
[3] = target: Caulobacter crescentus ParA R195E (DNA-binding deficient mutant) (C. crescentus); experiment: as above
[4] = target: Caulobacter crescentus ParA (wild type) (C. crescentus)
[5] = target: Caulobacter crescentus ParB-His6 (wild type) (C. crescentus); experiment: SEC-MALS; SEC-UV/LS/RI; purified His6-ParB on Superose 6 10/30 HR in 100 mM HEPES pH 7.4, 150 mM NaCl, 1 mM DTT, 0.3 ml/min; monomer to dimer
[6] = target: Caulobacter crescentus ParA (wild type) (C. crescentus); remark: listed apart in the source
[7] = substrate: Nc1ncnc2c1ncn2[C@@H]1O[C@H](COP(=O)(O)OP(=O)(O)OP(=O)(O)O)[C@@H](O)[C@H]1O; experiment: NADH-coupled ATPase assay (pyruvate kinase/lactate dehydrogenase); assay type: biochemical, Caulobacter vibrioides; details: 10 µM ParA, 1.5 mg/ml salmon sperm DNA, no ParB, 10 mM MgSO4, 150 mM potassium glutamate, pH 7.4, 30 °C
Excerpt: NADH-coupled ATPase assay (pyruvate kinase/lactate dehydrogenase) on ParA | ATPase activity was dependent on the concentration of ATP (Figure 1E), resulting in a KM

Molecule: Nc1ncnc2c1ncn2[C@@H]1O[C@H](COP(=O)(O)OP(=O)(O)OP(=O)(O)O)[C@@H](O)[C@H]1O [ATP]
size exclusion chromatography (ATP-dependent dimerization) [1]: ParAR195E mutant (Figure 1C), which can still dimerize upon ATP binding (Figure 1A)

Molecule: Caulobacter crescentus ParB-His6 (wild type) (natural protein)
ParA ATPase activity (NADH-coupled assay) with DNA, increase on adding ParB (60 µM) [4]: 10 fold
stoichiometry N [5]: 2
ParA (3 µM) ATPase activity against ParB concentration in the presence of DNA, Michaelis–Menten fit: apparent K (ParB) [6]: 80 µM

B1: ParA (Caulobacter vibrioides NA1000) (protein)
chain: MSANPLRVLAIANQKGGVGKTTTAINLGTALAACGERVLLIDADPQGNCSTGLGIGRTQRRTTLYDVLMGEAPVVDAAVKTELPGLDVIPADADLSGVEIELGQTARRSYRLRDALEAIRANGPYTYVLIDCPPSLNVLTVNAMTAADAVFVPLQCEFFALEGLTQLMRTIERVRGSLNPRLEIQGVVLTMYDRRNSLSEQVAKDVRAHFGDKVYDAVIPRNVRVSEAPSFGKPVLLYDLKCAGSQAYLKLAREVISRERDRQAKAA
notes: full length, recombinant from E. coli BL21(DE3), pET24HT-ParA, His6 tag removed by TEV protease
Km [7]: 150 µM
kcat [7]: 0.00164 s⁻¹

Results, then the molecule that gave them:

stoichiometry N [2]: 2
Molecule: Caulobacter crescentus ParA (wild type) (enzyme)

stoichiometry N [3]: 2
Molecule: Caulobacter crescentus ParA R195E (DNA-binding deficient mutant) (enzyme)
